The source of these data is patent publication US20220259330A1 (SUNSHINE GUOJIAN PHARMACEUTICAL SHANGHAI, published 2022).

Broadly, the EC50 is the concentration giving half of the maximal effect.

The target in experiment [1] is T1, CD47-ECD-His (human, UniProt Q08722 19-139).
T1 construct: extracellular domain; Bought; also called recombinant protein of the extracellular segment of human CD47 with a polyhistidine tag (Sino Biological 12283-H08H); not shown: polyhistidine tag
Kind of experiment: ELISA, plate coated with CD47-ECD-His. (In general: ELISA stands for enzyme-linked immunosorbent assay.)

The target of experiment [2] is T2, HER2-ECD-His (human, UniProt P04626 23-652).
T2 construct: extracellular domain; Bought; also called recombinant protein of the extracellular segment of human Her-2 with a polyhistidine tag (ACROBiosystems HE2-H5225); not shown: polyhistidine tag
Description: ELISA, plate coated with HER2-ECD-His.

The target in experiment [3] is T3, PD1-ECD-His (human, UniProt Q15116 25-170).
T3 construct: extracellular domain; Bought; also called recombinant protein of the extracellular segment of human PD-1 with a polyhistidine tag (Sino Biological 10377-H08H); not shown: polyhistidine tag
T3 sequence (Q15116 25-170): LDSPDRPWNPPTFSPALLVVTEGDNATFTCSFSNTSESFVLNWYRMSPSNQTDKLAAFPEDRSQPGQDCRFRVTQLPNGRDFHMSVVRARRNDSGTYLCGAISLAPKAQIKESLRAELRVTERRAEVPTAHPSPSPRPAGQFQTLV
Description: ELISA, plate coated with PD1-ECD-His.

In experiment [4] the target is T4, CD137-ECD-Fc (human, UniProt Q07011 24-186).
T4 construct: extracellular domain; Bought; also called recombinant protein of the extracellular segment of human CD137 with Fc tags (Sino Biological 10041-H02H); not shown: Fc tag
T4 sequence (Q07011 24-186): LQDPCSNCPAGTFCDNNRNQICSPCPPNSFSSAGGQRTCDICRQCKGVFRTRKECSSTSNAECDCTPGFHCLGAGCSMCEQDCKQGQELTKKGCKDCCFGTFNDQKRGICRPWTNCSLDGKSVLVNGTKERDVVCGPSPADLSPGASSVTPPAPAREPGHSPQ
Description: ELISA, plate coated with CD137-ECD-Fc.

The target in experiment [5] is T5, VEGF165-His (human, UniProt P15692-4 27-191).
T5 construct: also called Human VEGF165 with a 6*His tag
T5 sequence: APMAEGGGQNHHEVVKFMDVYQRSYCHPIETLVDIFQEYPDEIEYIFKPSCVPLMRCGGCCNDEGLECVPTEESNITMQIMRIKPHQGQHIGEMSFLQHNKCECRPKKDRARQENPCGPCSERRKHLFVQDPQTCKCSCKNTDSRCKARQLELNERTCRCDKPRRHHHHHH
Description: ELISA, plate coated with VEGF165-His.
Description: The ELISA detection method used in the following examples is described as follows: An ELISA plate was coated with recombinant proteins, respectively, and blocked with PBST containing 1% bovine serum albumin (PBST: phosphate buffer containing 0.05% Tween-20). The antibody to be tested was serially diluted, and then transferred to the above plate coated with recombinant protein, incubated at room temperature for half an hour and then the plate was washed; an appropriately diluted HRP (Horseradish Peroxidase)-labeled goat anti-human antibody (Fc- or Fab Specific, purchased from Sigma) was added, incubated at room temperature for half an hour and then the plate was washed; 100 μl of chromogenic solution with TMB (3,3′,5,5′-Tetramethylbenzidine) as a substrate was added to each well, incubated at room temperature for 1-5 min; 50 μl of stop solution (2M H₂SO₄) was added to stop the reaction. OD450 was read with a microplate reader (SpectraMax 190), and graphing and data analysis were performed using GraphPad Prism6, and EC50 was calculated.
Human VEGF165 with a 6*His tag (sequence from NCBI, Accession: AAM03108), and this recombinant protein was denoted as VEGF165-His. An ELISA plate was coated with PD1-His and VEGF165-His, with a coating concentration of 20 ng/well and 10 ng/well, respectively.

Where “and” joins values, the source holds several entries; their conditions need not be identical. Equal entries are not always repeated.

T1 sequence (Q08722 19-139 limits assumed): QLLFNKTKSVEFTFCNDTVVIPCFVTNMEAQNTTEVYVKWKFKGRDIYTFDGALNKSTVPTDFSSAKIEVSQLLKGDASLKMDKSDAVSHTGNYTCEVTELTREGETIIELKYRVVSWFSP

B1: 19H6-Hu-HC+Anti-CD47B-Hu-LC (antibody, human IgG1, kappa, V domains shown)
VH: QVQLVQSGAEVKKPGASVKVSCKGSGYTFTDYAIHWVRQAPGQSLEWIGVFSIYYENINYNQKFKGRATMTVDKSTSTAYMELRSLRSDDTAVYYCARRDGGTINYWGQGTLVTVSS
VL: DVVMTQSPLSLPVTLGQPASISCRSSQSLVHSNGKTYLHWYQQRPGQSPRLLIYKVSNRFSGVPDRFSGSGSGTDFTLKISRVEAEDVGVYYCSQSTHVPYTFGQGTKVEIKR
notes: Hybrid antibody
Consider B1, for which, in experiment [1], the binding result was “no binding”. Besides, the EC50 in experiment [2] worked out at 0.139 nM.

B2: Anti-CD47B-Hu (antibody, human IgG1, kappa, V domains shown)
VH: QVQLVQSGAEVKKPGASVKVSCKASGYTFANHVIHWVRQAPGQGLEWMGYIYPYNDGTKYNEKFKDRVTLTSDKSTSTVYMELSSLRSEDTAVYYCARGGYYTYDDWGQGTLVTVSS
VL: DVVMTQSPLSLPVTLGQPASISCRSSQSLVHSNGKTYLHWYQQRPGQSPRLLIYKVSNRFSGVPDRFSGSGSGTDFTLKISRVEAEDVGVYYCSQSTHVPYTFGQGTKVEIKR
notes: Humanized anti-human CD47, IgG1, kappa; also called humanized MABL-2
Take B2: in experiment [1], the EC50 came out at 0.0428 nM. The binding result in experiment [2] is “no binding”.

B3: Anti-CD47B-Hu-HC+19H6-Hu-LC (antibody, human IgG1, kappa, V domains shown)
VH: QVQLVQSGAEVKKPGASVKVSCKASGYTFANHVIHWVRQAPGQGLEWMGYIYPYNDGTKYNEKFKDRVTLTSDKSTSTVYMELSSLRSEDTAVYYCARGGYYTYDDWGQGTLVTVSS
VL: DVVMTQSPLSLPVTLGQPASISCRSSQSLVHSNGNTYLHWYQQRPGQSPRLLIYKVSNRFSGVPDRFSGSGSGTDFTLKISRVEAEDVGVYFCSQSTHIPWTFGQGTKVEIKR
notes: Hybrid antibody
With B3, the EC50 in experiment [1] was 0.0541 nM and 0.0617 nM. Besides, in experiment [2], the binding result is on record as “no binding”.

B4: 609-Fab-137-IgG4 (bispecific antibody)
heavy: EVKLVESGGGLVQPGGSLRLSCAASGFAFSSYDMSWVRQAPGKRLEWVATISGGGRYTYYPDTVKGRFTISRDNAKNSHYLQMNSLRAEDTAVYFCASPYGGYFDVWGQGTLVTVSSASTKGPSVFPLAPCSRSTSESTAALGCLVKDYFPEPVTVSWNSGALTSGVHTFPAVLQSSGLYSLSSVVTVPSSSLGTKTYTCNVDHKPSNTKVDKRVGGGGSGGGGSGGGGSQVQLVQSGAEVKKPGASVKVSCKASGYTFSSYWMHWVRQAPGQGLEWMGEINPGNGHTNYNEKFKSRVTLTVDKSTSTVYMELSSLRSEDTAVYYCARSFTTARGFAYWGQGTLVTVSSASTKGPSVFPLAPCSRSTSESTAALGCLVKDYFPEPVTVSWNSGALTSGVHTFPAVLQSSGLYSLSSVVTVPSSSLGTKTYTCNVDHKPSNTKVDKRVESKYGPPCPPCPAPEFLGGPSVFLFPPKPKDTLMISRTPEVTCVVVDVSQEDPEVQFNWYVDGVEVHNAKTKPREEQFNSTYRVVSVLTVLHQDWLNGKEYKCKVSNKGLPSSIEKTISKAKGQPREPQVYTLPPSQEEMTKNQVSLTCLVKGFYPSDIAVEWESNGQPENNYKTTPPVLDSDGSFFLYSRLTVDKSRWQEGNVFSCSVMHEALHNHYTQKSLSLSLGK
light: EIVMTQSPDFQSVTPKEKVTITCRASQTISDYLHWYQQKPDQSPKLLIKYASQSISGIPSRFSGSGSGSDFTLTINSLEAEDAATYYCQDGHSFPPTFGQGTKVEIKRTVAAPSVFIFPPSDEQLKSGTASVVCLLNNFYPREAKVQWKVDNALQSGNSQESVTEQDSKDSTYSLSSTLTLSKADYEKHKVYACEVTHQGLSSPVTKSFNRGEC
Take B4: the EC50 in experiment [3] worked out at 0.229 nM; in experiment [4], 0.357 nM.

B5: 137-Fab-609-IgG4 (bispecific antibody)
heavy: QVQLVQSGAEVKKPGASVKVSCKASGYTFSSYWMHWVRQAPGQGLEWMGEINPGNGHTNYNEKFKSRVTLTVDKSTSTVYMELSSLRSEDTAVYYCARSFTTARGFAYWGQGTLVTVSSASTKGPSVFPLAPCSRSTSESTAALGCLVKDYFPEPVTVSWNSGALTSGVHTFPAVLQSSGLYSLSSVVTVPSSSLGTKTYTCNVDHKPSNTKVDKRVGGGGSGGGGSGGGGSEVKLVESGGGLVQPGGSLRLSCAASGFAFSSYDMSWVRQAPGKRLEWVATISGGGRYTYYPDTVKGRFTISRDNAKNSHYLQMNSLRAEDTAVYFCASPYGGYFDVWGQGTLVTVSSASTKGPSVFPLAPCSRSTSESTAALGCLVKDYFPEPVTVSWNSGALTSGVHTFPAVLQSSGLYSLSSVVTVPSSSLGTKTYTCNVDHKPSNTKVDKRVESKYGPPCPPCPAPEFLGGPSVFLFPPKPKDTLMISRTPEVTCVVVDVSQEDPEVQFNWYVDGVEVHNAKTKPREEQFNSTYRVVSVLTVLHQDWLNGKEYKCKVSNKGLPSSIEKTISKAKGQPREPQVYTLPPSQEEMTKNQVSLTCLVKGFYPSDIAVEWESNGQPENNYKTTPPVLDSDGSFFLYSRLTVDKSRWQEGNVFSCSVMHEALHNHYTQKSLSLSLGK
light: EIVMTQSPDFQSVTPKEKVTITCRASQTISDYLHWYQQKPDQSPKLLIKYASQSISGIPSRFSGSGSGSDFTLTINSLEAEDAATYYCQDGHSFPPTFGQGTKVEIKRTVAAPSVFIFPPSDEQLKSGTASVVCLLNNFYPREAKVQWKVDNALQSGNSQESVTEQDSKDSTYSLSSTLTLSKADYEKHKVYACEVTHQGLSSPVTKSFNRGEC
On to B5, for which the EC50 in experiment [3] worked out at 1.42 nM; in experiment [4], 0.242 nM.

B6: Anti-CD137-Hu (antibody, human IgG4 S228P, kappa, V domains shown)
VH: QVQLVQSGAEVKKPGASVKVSCKASGYTFSSYWMHWVRQAPGQGLEWMGEINPGNGHTNYNEKFKSRVTLTVDKSTSTVYMELSSLRSEDTAVYYCARSFTTARGFAYWGQGTLVTVSS
VL: EIVMTQSPDFQSVTPKEKVTITCRASQTISDYLHWYQQKPDQSPKLLIKYASQSISGIPSRFSGSGSGSDFTLTINSLEAEDAATYYCQDGHSFPPTFGQGTKVEIKR
notes: Humanized anti-human CD137, IgG4 (S228P), kappa; also called humanized 4B4-1-1
For B6, in experiment [3], the binding result was “no binding”. In experiment [4], this molecule displayed an EC50 of 0.461 nM.

B7: Anti-CD137-Hu-HC+609-LC (antibody, human IgG4 S228P, kappa, V domains shown)
VH: QVQLVQSGAEVKKPGASVKVSCKASGYTFSSYWMHWVRQAPGQGLEWMGEINPGNGHTNYNEKFKSRVTLTVDKSTSTVYMELSSLRSEDTAVYYCARSFTTARGFAYWGQGTLVTVSS
VL: EIVLTQSPATLSLSPGERATLSCRASQSISNFLHWYQQKPGQAPRLLIKYASQSISGIPARFSGSGSGTDFTLTISSLEPEDFAVYFCQQSNSWPHTFGQGTKVEIKR
notes: Hybrid antibody
On to B7, for which the binding result in experiment [3] and in experiment [4] was “no binding” each time.

B8: 601-HC+20-Hu-LC (antibody, human IgG1, kappa, V domains shown)
VH: EVQLVESGGGLVQPGGSLRLSCAASGYTFTNYGMNWVRQAPGKGLEWVGWINTYTGEPTYAADFKRRFTFSLDTSKSTAYLQMNSLRAEDTAVYYCAKYPHYYGSSHWYFDVWGQGTLVTVSS
VL: DIQMTQSPSSLSASVGDRVTITCSASQGISNFLSWYQQKPGKTVKLLIYYTSSLHSGVPSRFSGSGSGTDYTFTISSLQPEDIATYYCQQYSNLPWTFGQGTKVEIKR
notes: Hybrid antibody
For the molecule B8, the EC50 in experiment [5] came to 8.22 nM.

B9: 601-HC+601-LC-N34S (antibody, human IgG1, kappa, V domains shown)
VH: EVQLVESGGGLVQPGGSLRLSCAASGYTFTNYGMNWVRQAPGKGLEWVGWINTYTGEPTYAADFKRRFTFSLDTSKSTAYLQMNSLRAEDTAVYYCAKYPHYYGSSHWYFDVWGQGTLVTVSS
VL: DIQMTQSPSSLSASVGDRVTITCSASQDISNYLSWYQQKPGKAPKVLIYFTSSLHSGVPSRFSGSGSGTDFTLTISSLQPEDFATYYCQQYSTVPWTFGQGTKVEIKR
In turn, B9 returned an EC50 in experiment [5] of 0.208 nM.

B10: 601-HC+601-LC-Y32F (antibody, human IgG1, kappa, V domains shown)
VH: EVQLVESGGGLVQPGGSLRLSCAASGYTFTNYGMNWVRQAPGKGLEWVGWINTYTGEPTYAADFKRRFTFSLDTSKSTAYLQMNSLRAEDTAVYYCAKYPHYYGSSHWYFDVWGQGTLVTVSS
VL: DIQMTQSPSSLSASVGDRVTITCSASQDISNFLNWYQQKPGKAPKVLIYFTSSLHSGVPSRFSGSGSGTDFTLTISSLQPEDFATYYCQQYSTVPWTFGQGTKVEIKR
For B10, a half-maximal effect in experiment [5] (EC50) was put at 0.125 nM.

B11: 601-HC+601-LC-V46L (antibody, human IgG1, kappa, V domains shown)
VH: EVQLVESGGGLVQPGGSLRLSCAASGYTFTNYGMNWVRQAPGKGLEWVGWINTYTGEPTYAADFKRRFTFSLDTSKSTAYLQMNSLRAEDTAVYYCAKYPHYYGSSHWYFDVWGQGTLVTVSS
VL: DIQMTQSPSSLSASVGDRVTITCSASQDISNYLNWYQQKPGKAPKLLIYFTSSLHSGVPSRFSGSGSGTDFTLTISSLQPEDFATYYCQQYSTVPWTFGQGTKVEIKR
B11 returned an EC50 in experiment [5] of 0.326 nM.

B12: 601-HC+601-LC-D28G (antibody, human IgG1, kappa, V domains shown)
VH: EVQLVESGGGLVQPGGSLRLSCAASGYTFTNYGMNWVRQAPGKGLEWVGWINTYTGEPTYAADFKRRFTFSLDTSKSTAYLQMNSLRAEDTAVYYCAKYPHYYGSSHWYFDVWGQGTLVTVSS
VL: DIQMTQSPSSLSASVGDRVTITCSASQGISNYLNWYQQKPGKAPKVLIYFTSSLHSGVPSRFSGSGSGTDFTLTISSLQPEDFATYYCQQYSTVPWTFGQGTKVEIKR
As for B12, the EC50 in experiment [5] was determined as 0.133 nM.

B13: 601-HC+601-LC-F71Y (antibody, human IgG1, kappa, V domains shown)
VH: EVQLVESGGGLVQPGGSLRLSCAASGYTFTNYGMNWVRQAPGKGLEWVGWINTYTGEPTYAADFKRRFTFSLDTSKSTAYLQMNSLRAEDTAVYYCAKYPHYYGSSHWYFDVWGQGTLVTVSS
VL: DIQMTQSPSSLSASVGDRVTITCSASQDISNYLNWYQQKPGKAPKVLIYFTSSLHSGVPSRFSGSGSGTDYTLTISSLQPEDFATYYCQQYSTVPWTFGQGTKVEIKR
Regarding B13, the EC50 in experiment [5] was 0.148 nM.

B14: 601-HC+601-LC-F50Y (antibody, human IgG1, kappa, V domains shown)
VH: EVQLVESGGGLVQPGGSLRLSCAASGYTFTNYGMNWVRQAPGKGLEWVGWINTYTGEPTYAADFKRRFTFSLDTSKSTAYLQMNSLRAEDTAVYYCAKYPHYYGSSHWYFDVWGQGTLVTVSS
VL: DIQMTQSPSSLSASVGDRVTITCSASQDISNYLNWYQQKPGKAPKVLIYYTSSLHSGVPSRFSGSGSGTDFTLTISSLQPEDFATYYCQQYSTVPWTFGQGTKVEIKR
Take B14: the midpoint of the response in experiment [5], the EC50, lay at 0.14 nM.

B15: 601-HC+601-LC-T93N (antibody, human IgG1, kappa, V domains shown)
VH: EVQLVESGGGLVQPGGSLRLSCAASGYTFTNYGMNWVRQAPGKGLEWVGWINTYTGEPTYAADFKRRFTFSLDTSKSTAYLQMNSLRAEDTAVYYCAKYPHYYGSSHWYFDVWGQGTLVTVSS
VL: DIQMTQSPSSLSASVGDRVTITCSASQDISNYLNWYQQKPGKAPKVLIYFTSSLHSGVPSRFSGSGSGTDFTLTISSLQPEDFATYYCQQYSNVPWTFGQGTKVEIKR
On to B15, for which a half-maximal response in experiment [5] (EC50) required 0.126 nM.
